# Target: vascular endothelial growth factor receptor-1 (VEGFR-1) (human) (UniProt P17948)
# Assay: cell-based or functional assay
# Sequence of UniProt P17948 (P17948 27-1338): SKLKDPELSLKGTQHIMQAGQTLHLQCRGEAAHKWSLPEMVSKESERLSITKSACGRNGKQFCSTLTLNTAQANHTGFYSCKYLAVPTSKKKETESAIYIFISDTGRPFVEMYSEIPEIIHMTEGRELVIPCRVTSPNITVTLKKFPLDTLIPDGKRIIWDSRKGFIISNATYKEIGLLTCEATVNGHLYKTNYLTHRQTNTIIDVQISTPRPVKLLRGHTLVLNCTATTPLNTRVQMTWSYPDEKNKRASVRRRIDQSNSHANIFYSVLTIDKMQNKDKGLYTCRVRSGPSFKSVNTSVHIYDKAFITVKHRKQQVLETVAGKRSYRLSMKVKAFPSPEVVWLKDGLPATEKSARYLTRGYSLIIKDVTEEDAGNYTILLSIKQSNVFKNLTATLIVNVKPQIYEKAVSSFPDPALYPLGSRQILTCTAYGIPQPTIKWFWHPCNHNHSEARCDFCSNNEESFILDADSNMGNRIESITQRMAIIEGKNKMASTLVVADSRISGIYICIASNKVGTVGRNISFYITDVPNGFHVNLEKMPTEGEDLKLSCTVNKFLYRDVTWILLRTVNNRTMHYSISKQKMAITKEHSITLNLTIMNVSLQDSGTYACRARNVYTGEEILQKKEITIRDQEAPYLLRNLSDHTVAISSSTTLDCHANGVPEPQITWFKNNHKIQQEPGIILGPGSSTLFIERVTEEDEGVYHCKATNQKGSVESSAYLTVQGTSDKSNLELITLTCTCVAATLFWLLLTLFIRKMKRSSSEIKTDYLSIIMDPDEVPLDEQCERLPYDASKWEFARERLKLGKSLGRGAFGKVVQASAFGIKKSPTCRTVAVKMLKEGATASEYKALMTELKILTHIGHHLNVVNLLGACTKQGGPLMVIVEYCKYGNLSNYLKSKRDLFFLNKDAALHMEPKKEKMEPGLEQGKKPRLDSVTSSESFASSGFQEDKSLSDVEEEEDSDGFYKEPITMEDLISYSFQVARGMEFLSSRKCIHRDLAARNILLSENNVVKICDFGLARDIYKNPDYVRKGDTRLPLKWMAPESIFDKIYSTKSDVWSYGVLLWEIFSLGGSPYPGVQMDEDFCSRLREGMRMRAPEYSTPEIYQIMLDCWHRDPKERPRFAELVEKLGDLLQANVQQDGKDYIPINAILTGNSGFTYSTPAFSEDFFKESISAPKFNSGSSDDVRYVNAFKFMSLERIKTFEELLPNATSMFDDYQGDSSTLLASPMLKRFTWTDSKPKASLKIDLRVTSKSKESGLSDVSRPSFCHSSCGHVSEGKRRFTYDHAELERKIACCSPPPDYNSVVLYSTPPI
Substance,"VEGF-induced CD144 expression (% of cells), isotype control mAb-treated human melanoma cells","VEGF-induced tube formation, average tube length, isotype control mAb-treated","VEGF-induced tube formation, numbers of tubes formed/microscopy field, isotype control mAb-treated (tubes/microscopy field)","VEGF-induced CD144 expression (% of cells), untreated human melanoma cells","VEGF-induced tube formation, average tube length, untreated","VEGF-induced tube formation, numbers of tubes formed/microscopy field, untreated (tubes/microscopy field)"
isotype control mAb (antibody),57%,86.5 µm,76.7,,,
vascular endothelial growth factor (VEGF) (from UniProt P15692 27-191) (ligand),,,,64%,92.1 µm,99
